Reference: patent publication US5871960, “Nucleic acids encoding CR5 polypeptide, vector and transformed cell thereof, and expression thereof” (Trustees of Dartmouth College)

Tests used:
[1] = target: T1, CR8 bHLH domain (BHLHE40/DEC1) (human, UniProt O14503 SEQ:52-107); assay: EMSA; 20 mM Hepes pH 7.6, 50 mM KCl, 10 mM DTT, poly(dI-dC), room temperature; self-competition partial at 50-fold and complete at 500-fold excess; conditions: tags: N-terminal His tag (pRSET-A, Xpress System), 16.6 kD with tag; chain copies: 2 (homodimer, stated); label: 32P 5' end; 5' GATC overhangs
T1 chain: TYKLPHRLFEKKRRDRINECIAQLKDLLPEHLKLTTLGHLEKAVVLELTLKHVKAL
Procedure: One strand of the oligonucleotide was labeled with [g-32P]ATP by T4 polynucleotide kinase, hybridized with three times excess of the opposite strand, and purified using MERmaid oligonucleotide purification kit (BIO 101). 150 ng of the protein was allowed to bind to 50,000 cpm (equivalent to 0.5 ng in a typical experiment) of the labeled probe for 15 min at room temperature in 20 mM Hepes, pH 7.6, 50 mM KCl, 10 mM DTT, 5% glycerol, 0.5 mM EDTA and 0.3 mg/ml BSA. Two microgram of poly (dI-dC) was added to each […] reaction as on-specific DNA. Samples were analyzed on a 5% native polyacrylamide gel and visualized by autoradiography.
To examine the relative binding affinity, a large excess of non-labeled oligonucleotide was added to the reaction as competitor. […] 0.5 ng of the radiolabeled Class B probe was incubated with CR8 bHLH in the absence (lane 1) or the presence (lanes 2 to 7) of either 25 ng (50-fold excess; lanes 2, 4 and 6) and 250 ng (500-fold excess; lanes 3, 5 and 7) of unlabeled competitors. […] Thus, since all these experiments were done in the absence of other HLH proteins, it appears that CR8 bHLH bound to the Class B sequence as a homodimer with the highest affinity.

[2] = target: T1, CR8 bHLH domain (BHLHE40/DEC1); assay: EMSA; same buffer; conditions: tags: N-terminal His tag (pRSET-A, Xpress System), 16.6 kD with tag; chain copies: 2 (homodimer, stated); label: 32P 5' end; 5' GATC overhangs
Description: (§1) The oligonucleotide probes used for the electrophoretic mobility shift assay (EMSA) are as follows: the Class A site used was the CACCTG hexamer (CAGGTG for the opposite strand) from the T5 promoter region of the Drosophila AS-C (Villares, R. et al. (1987) *Cell* 550:415–424) (5'-[…]-3' (SEQ ID NO:17) and 5'-[…]-3' (SEQ ID NO:18) for the opposite strand), the Class B site was the CACGTG hexamer from the USF binding site in the adenovirus major late promoter (Gregor, P. D. et al. (1990) *Genes & Dev.* 4:1730–1740) (5'-[…]-3' (SEQ ID NO:19) and 5'-[…]-3') (SEQ ID NO:20), the Class C site was the CACGCG hexamer (CGCGTG for the opposite strand) from the AS-C T5 promoter (5'-[…]-3' (SEQ ID NO:21) and 5'-[…]-3') (SEQ ID NO:22), and the N-box (CACNAG) was the double hexamer sequence from the Enhancer of split [E(spl)] m8 promoter (Klimbt, C. et al. (1989) *EMBO J.* 8:203–210) (5'-[…]-3' (SEQ ID NO:23) and 5'-[…]-3' (SEQ ID NO:24). One strand of the oligonucleotide was labeled with [g-32P]ATP by T4 polynucleotide kinase, hybridized with three times excess of the opposite strand, and purified using MERmaid oligonucleotide purification kit (BIO 101). […] Samples were analyzed on a 5% native polyacrylamide gel and visualized by autoradiography.

[3] = target: T2, daughterless (da) bHLH domain (Drosophila melanogaster, UniProt P11420 P11420:554-607); assay: EMSA; positive control; conditions: tags: supplied by Dr. Michael Caudy, Cornell University Medical College; label: 32P 5' end; 5' GATC overhangs
T2 sequence: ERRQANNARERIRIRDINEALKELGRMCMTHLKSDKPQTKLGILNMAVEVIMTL
Description: as §1

Binder | binding result [1] | binding result [2] | binding result [3]
Class B E-box probe (USF site, adenovirus major late promoter) (dsDNA) DNA 1: GATCGGTGTAGGCCACGTGACCGGGTGT DNA 2: GATCACACCCGGTCACGTGGCCTACACC | binds | – | –
Class C probe (AS-C T5 promoter) (dsDNA) DNA 1: GATCGGCAGCCGGCACGCGACAGGGCC DNA 2: GATCGGCCCTGTCGCGTGCCGGCTGCC | – | binds | –
Class A E-box probe (AS-C T5 promoter) (dsDNA) DNA 1: GATCGTAGTCACGCAGGTGGGATCCCTA DNA 2: GATCTAGGGATCCCACCTGCGTGACTAC | – | no binding | binds
